# From EP4606822A1 (MULTITUDE THERAPEUTICS INC., dated 2024)
# Where a chain is given by its changes, count along the chain named.
# B1: humanized 4O3 antibody L2H4 (antibody, human IgG1, kappa, V domains shown)
# VH: QVQLQESGPGLVKPSQTLSLTCTVSGISITTGNYRWSWIRQHPGKKLEWIGNIYYSGAITYNPSLKSRVTISRDTSKNQFFLKLSSVTAADTAVYYCARDGGTVVEGWYFDVWGKGTTVTVSS
# VL: EIVLTQSPDTQSVTPKEKVTITCRASQSISDYLHWYQQKPDQSPKLLIKYASQSISGVPSRFSGSGSGTDFTLTINSLEAEDVGLYYCQSGRSFPLTFGGGTKVEIKR
# notes: also called Hu4O3
# B2: humanized 4O3 antibody L1H4 (antibody, human IgG1, kappa)
# heavy: not shown
# light: EIVLTQSPDTQSVTPKEKVTITCRASQSISDYLHWYQQKPDQSPKLLIKYASQSISGVPSRFSGSGSGTDFTLTINSLEAEDAATYYCQSGRSFPLTFGGGTKVEIKRTVAAPSVFIFPPSDEQLKSGTASVVCLLNNFYPREAKVQWKVDNALQSGNSQESVTEQDSKDSTYSLSSTLTLSKADYEKHKVYACEVTHQGLSSPVTKSFNRGEC
# notes: also called Hu4O3
# B3: humanized 4O3 antibody L4H4 (antibody, human IgG1, kappa, V domains shown)
# VH: B1 VH
# VL: B1 VL with D41G, S43A, V83F
# notes: also called Hu4O3
# B4: humanized 4O3 antibody L4H7 (antibody, human IgG1, kappa, V domains shown)
# VH: B1 VH with H42P, K46G, N52Y, F81S, K83Q, S85R, K115Q
# VL: B1 VL with D41G, S43A, V83F
# notes: also called Hu4O3
# B5: humanized 4O3 antibody L1H5 (antibody, human IgG1, kappa)
# heavy: not shown
# light: B2 light
# notes: also called Hu4O3 (L1H5); Hu4O3
# Molecular target: T1, HER3 on human tumor cell lines (human, UniProt P21860 20-1342)
# T1 construct: whole, on cells; The immunogen was the human HER3 extracellular domain (NM_001982.4, positions 20-643), but the flow cytometry assays used endogenous HER3 on cells; also called HER3 protein
# Assay: flow cytometry on SW620 cells
# T1 sequence (P21860 20-1342): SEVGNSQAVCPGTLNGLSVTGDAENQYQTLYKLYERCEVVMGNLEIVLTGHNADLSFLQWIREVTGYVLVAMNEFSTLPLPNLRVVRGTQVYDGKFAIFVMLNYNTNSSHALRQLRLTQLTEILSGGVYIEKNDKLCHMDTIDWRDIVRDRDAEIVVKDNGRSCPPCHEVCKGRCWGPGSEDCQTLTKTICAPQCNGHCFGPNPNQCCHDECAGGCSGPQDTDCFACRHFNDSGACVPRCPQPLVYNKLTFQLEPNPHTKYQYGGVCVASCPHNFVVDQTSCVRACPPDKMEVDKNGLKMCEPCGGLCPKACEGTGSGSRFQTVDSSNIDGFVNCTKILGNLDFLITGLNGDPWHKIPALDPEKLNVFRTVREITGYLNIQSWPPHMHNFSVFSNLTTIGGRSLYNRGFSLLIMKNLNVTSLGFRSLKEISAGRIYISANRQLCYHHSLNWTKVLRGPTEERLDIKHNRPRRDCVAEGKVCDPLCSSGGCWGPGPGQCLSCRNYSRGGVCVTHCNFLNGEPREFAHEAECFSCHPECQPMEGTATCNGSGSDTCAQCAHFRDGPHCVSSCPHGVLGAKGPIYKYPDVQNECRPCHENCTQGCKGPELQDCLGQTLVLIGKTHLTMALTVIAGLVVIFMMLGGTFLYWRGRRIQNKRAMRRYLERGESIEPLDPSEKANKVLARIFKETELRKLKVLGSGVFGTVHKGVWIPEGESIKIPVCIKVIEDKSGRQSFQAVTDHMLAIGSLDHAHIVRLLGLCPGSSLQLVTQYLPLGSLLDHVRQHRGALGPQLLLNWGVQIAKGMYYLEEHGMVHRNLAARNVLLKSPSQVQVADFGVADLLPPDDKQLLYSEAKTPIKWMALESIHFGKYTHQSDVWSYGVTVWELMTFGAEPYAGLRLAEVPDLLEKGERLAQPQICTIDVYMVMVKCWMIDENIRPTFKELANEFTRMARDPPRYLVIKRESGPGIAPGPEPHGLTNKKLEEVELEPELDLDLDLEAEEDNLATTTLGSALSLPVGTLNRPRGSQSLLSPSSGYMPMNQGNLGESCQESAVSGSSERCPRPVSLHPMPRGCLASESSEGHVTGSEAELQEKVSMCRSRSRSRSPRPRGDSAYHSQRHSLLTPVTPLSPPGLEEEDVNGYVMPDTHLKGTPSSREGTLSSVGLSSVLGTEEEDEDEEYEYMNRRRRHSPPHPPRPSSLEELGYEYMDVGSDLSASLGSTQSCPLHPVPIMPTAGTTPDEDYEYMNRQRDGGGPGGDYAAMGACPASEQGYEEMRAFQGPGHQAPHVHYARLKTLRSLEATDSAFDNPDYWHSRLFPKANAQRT
row,Binder,EC50 [nM]
1,B1,1200
2,B2,194
3,B3,90
4,B4,21.9
5,B5,147

# Molecular target: T1, HER3 on human tumor cell lines
# Assay: flow cytometry on MDA-MB-453 cells
row,Binder,EC50 [nM]
1,B2,71.5
2,B5,122
